Consider five molecules from US6214569A, “Methods for screening for inhibitors of Alzheimer β-peptide filament formation” (President and Fellows of Harvard College, priority 1997, dated 2001).

Test [1] has as its target T1, Aβ1-42 (Homo sapiens, UniProt P05067). The test can be described thus: Aβ filament formation quantitated by electron microscopy (filament crossovers). The test is classed as biochemical. The conditions noted are these: molar ratio 4:1, 18 hours. Here is the method: At 18 hours, filaments were applied to carbon-coated Formvar on 200 mesh copper grids, dried, negatively stained with 3% uranyl acetate and visualized in a JEOL-100CX electron microscope. Many small and a few large filaments were visible in the electron micrograph and are representative of the products of this polymerization reaction.
The degree of filament formation was analyzed using electron microscopy. The reaction mixture was diluted with water or buffer. A Formvar-coated copper electron microscope grid was touched briefly to a droplet of the reaction mixture, allowing the filaments to stick to the Formvar plastic film. This procedure was also performed with Formvar which was precoated with carbon prior to the sticking of the filaments to the surface. The filaments were then stained with either a solution of uranyl acetate or sprayed ("shadowed") with a heavy metal such as platinum to allow their visualization.
The Aβ1-42 peptide was incubated in the presence of purified Apolipoproteins E2, E3 and E4 and α1 -ACT, ApoAI and ApoAII at a molar ratio of 4:1, as described in Examples 1 and 2. Electron microscopic examination of the reaction products was used to quantitate the amount of Aβ filament formation from the reaction of Aβ with ApoE3, ApoE4 or α1 -ACT. Five randomly chosen electron micrographs of each reaction product after 18 hours of incubation as in Examples 1 and 2 were analyzed by counting the number of crossovers that the filaments underwent with each other. This provides a measure of both the number and length of the amyloid filaments per unit area of the grid. […] The formation of Aβ filaments was inhibited when ApoE4 was incubated with Aβ in the presence of ApoE2 and equimolar amounts of ApoE4 and ApoE2 were used. Reducing the amount of Aβ filament formed to levels produced by the control protein, BSA (see FIG. 3).

In test [2] the target is T2, α1 -ACT (Homo sapiens, UniProt P01011).
T2 sequence (P01011 24-423): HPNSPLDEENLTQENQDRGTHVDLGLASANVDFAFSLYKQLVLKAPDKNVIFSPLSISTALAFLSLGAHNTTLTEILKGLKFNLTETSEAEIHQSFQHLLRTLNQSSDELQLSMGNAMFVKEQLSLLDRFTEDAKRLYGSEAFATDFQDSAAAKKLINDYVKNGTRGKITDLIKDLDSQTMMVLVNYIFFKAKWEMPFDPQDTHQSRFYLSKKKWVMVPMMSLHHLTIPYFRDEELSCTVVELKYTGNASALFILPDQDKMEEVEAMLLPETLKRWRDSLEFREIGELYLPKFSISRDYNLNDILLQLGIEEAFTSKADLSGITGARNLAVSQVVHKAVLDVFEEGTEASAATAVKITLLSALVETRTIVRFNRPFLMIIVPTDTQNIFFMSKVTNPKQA
The conditions noted are these: disclosed in U.S. Ser. No. 08/179,574; cited from earlier work.

Test [3] concerns the target T2, α1 -ACT. The conditions noted are these: disclosed in U.S. Ser. No. 08/179,574; cited from earlier work. This is another data set of the same source.
The test system of test [4] is human cortical neurons. The test can be described thus: Neurotoxicity of Aβ filaments formed with promoting factors, MTT assay (Example 4). The test is classed as cell-based. The conditions noted are these: applied day 12, MTT day 16. Here is the method:
Certain promoters of the assembly of Aβ filaments of amyloid filaments formed in vitro also result in these filaments being neurotoxic. This was determined by using fetal human cortical tissue from 18-22 week gestation were used for this study. The protocol obtaining postmortem fetal tissue complied with all federal guidelines for federal research. The cortical cell culture were prepared as follows. The frontal and temporal lobes were removed from fetal brain. Cells were disassociated in calcium and magnesium free Hank's balanced salt solution containing 0.2% […] for 10 minutes at room temperature, and subsequently disassociated in serum-containing Dulbecco's Modified Eagle Medium (D-MEM) with DNase (0.2 mg/ml) for three times. The cells were plated onto laminin (10 μg/ml) coated 96-well plate ([…]) in a neuronbasal medium supplemented with B27 (Gibco), 2 mM glutamine and 1x antibiotic antimycotic solution and kept in a humidified 5% CO2 atmosphere. […]
The products of the reactions shown in FIG. 3 were both applied to two or three sister cultured wells on day 12. Cell viability was evaluated by morphological criteria and colorimetric MTT (Tetrazolium) on day 16. […] The plates were read on a BT 1000 microreader, using a test wavelength of 550 nm, a reference wavelength of 650 nm. The plates were routinely read within 20 minutes of addition of DMSO.

Test [5] deals with T1, Aβ1-42. The test can be described thus: Aβ filament assembly monitored by light scattering. To be noted: Aβ1-42 80 μM, molar ratio 200:1, light scattering. The class given is biochemical. Here is the method:
Biosynthetic Aβ1-42 was incubated at a concentration of 80 μM in 100 μl of 10 μM Tris-HCl; pH 7.0 at 22° C. for 8, 24 and 48 hours. Assembly of Aβ into high molecular weight filamentous structures was monitored by light scattering at […]. Light scattering increases linearly according to the size and number of filaments formed. The results are shown in FIG. 1 and indicate that Aβ peptide spontaneously forms amyloid filaments, starting after about 8 hours of incubation; the rate of formation levels off after about 24 hours. The Aβ1-42 was incubated, as described in Example 1, in the presence or absence of α1 -antichymotrypsin or a control protein (BSA) at a molar ratio of 200:1. Filament assembly was monitored by light scattering. The results are shown in FIG. 2 and indicate that α1 -ACT results in the rate of filament formation being enhanced about ten-fold over the controls. Formation of filaments was essentially complete after about 8 hours.

The test system of test [6] is primary human cortical neurons. The test can be described thus: Promotion of Aβ1-42 neurotoxicity by pathological chaperones, MTT assay (Example 12). The test is classed as cell-based. To be noted: Aβ1-42 80 μM with 0.4 μM protein, 48 hours at 22° C.; MTT on day 4. The method, then: Biosynthetic Aβ1-42 (80 μM) was incubated with ACT (CalBiochem), purified human apoE and individual control protein (0.4 μM) in 100 μl of 10 μM Tris-HCl, pH 7.0 for 48 hours at 22° C. The 12.5 μl of each reaction product was then added to 14 days old primary human cortical neurons in culture. The cell viability was measured by a colorimetric MTT (Sigma) assay on day 4. Data are expressed ±S.E.M. in FIGS. 7-9. ACT and apoE4 induced a 2- and 4-fold increase in neurotoxicity of Aβ1-42, respectively. […] Since Aβ1-42 is prone to self-aggregate into filaments, only aliquots of each preparation of Aβ1-42 devoid of filaments, as judged by electron microscopy, were used for experiments.
Method of cell culture: The cortical neuron cultures were prepared as follows. Frontal lobes of brain were removed from an electively terminated human fetus on gestational age of 18-21 weeks. Cortical cells were dissociated in serum-free medium containing 0.2% trypsin (Sigma) and 25 μg/ml DNase I (Sigma) and plated 4×10^4 cells per well (96-well plate, Falcon) precoated with 10 μg/ml laminin (Gibco). The cells were cultured in DMEM (Gibco) supplemented with 10% fetal calf serum (Gibco) and 2 mM glutamine. Cultures were kept at 37° C. in a 7% CO2 atmosphere. After day 4 in vitro, non-neuronal cell division was halted by exposure to 10^-5 M cytosine arabinoside. […]

Entries after “also recorded” stand apart in the source; their conditions may differ.

T1 sequence (P05067 672-713): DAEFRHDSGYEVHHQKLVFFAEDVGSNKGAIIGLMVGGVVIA

As to ApoAI: Apolipoprotein AI, the “promotion of Aβ filament formation (in words)” value in test [1] was “inactive”. Same read-out and setting: next, ApoAII: Apolipoprotein AII: “inactive”.

“Aβ1-28: peptide corresponding to amino acids 1-28 of the N-terminal of Aβ peptide”: in test [2], the “complex formation with α1-ACT” value was “form stable complexes”. Besides, in test [3], the “effect on the ability of α1-ACT to inhibit chymotrypsin” value is “suppress the ability of α1 -ACT to inhibit chymotrypsin”. For the molecule “Aβ: Alzheimer's β-peptide, 39-42 amino acid peptide; biosynthetic Aβ1-42 used in the examples [reference compound]”, the “neurotoxicity of the reaction mixture of Aβ plus the substance” value in test [4] was “neurotoxic”.

B1: α1 -ACT: protease inhibitor α1-antichymotrypsin, amyloid associated protein (protein, UniProt P01011 24-423, looked up)
Alpha-1-antichymotrypsin: T2 sequence (P01011 24-423)
For the molecule B1, in test [4], the “neurotoxicity of the reaction mixture of Aβ plus the substance” value is on record as “greatest neurotoxicity”. For the same molecule, the “promotion of Aβ filament formation (in words)” value in test [1] is “promote the formation of Aβ filaments”. Further, the “enhancement of the rate of Aβ filament formation over the controls” value in test [5] is “at least ten; also recorded: about ten”. The “increase in neurotoxicity of Aβ1-42” value in test [6] was 2 fold.
